Measurements: US11419948B2, “Functionalized microgels with fibrin binding elements” (Georgia Tech Research Corporation, priority 2013, dated 2022)

Legend:
fibrin clots = target: T1, fibrin clots (Homo sapiens, UniProt P02671+P02675+P02679); assay: Clot polymerization/degradation assay (thrombin, tPA, plasminogen; turbidity); format: biochemical; conditions: versus control clots or clots with S11-ULC microgels
T1 sequence (P02671 36-866 limits assumed): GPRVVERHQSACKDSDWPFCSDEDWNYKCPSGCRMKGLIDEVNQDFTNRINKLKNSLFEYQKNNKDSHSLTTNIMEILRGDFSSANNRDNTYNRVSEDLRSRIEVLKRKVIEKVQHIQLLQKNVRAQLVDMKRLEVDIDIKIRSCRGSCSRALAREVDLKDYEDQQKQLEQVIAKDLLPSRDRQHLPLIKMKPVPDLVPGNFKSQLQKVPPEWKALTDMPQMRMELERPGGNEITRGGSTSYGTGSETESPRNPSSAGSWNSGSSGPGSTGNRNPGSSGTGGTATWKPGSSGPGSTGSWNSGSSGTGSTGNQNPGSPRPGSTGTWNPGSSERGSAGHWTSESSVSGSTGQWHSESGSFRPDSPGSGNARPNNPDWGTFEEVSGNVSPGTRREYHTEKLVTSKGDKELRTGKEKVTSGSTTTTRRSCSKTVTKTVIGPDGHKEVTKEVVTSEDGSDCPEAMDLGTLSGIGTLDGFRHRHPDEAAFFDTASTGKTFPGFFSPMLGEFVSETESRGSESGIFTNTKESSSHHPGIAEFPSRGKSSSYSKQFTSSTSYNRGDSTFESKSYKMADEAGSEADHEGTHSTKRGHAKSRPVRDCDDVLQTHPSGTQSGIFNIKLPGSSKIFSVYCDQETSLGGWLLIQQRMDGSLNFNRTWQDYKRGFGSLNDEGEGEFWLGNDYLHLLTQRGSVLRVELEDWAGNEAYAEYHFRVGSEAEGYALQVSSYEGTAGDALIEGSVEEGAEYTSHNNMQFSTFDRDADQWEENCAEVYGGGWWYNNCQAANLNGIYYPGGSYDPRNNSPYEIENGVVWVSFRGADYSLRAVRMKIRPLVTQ
T1 sequence (P02675 45-491 limits assumed): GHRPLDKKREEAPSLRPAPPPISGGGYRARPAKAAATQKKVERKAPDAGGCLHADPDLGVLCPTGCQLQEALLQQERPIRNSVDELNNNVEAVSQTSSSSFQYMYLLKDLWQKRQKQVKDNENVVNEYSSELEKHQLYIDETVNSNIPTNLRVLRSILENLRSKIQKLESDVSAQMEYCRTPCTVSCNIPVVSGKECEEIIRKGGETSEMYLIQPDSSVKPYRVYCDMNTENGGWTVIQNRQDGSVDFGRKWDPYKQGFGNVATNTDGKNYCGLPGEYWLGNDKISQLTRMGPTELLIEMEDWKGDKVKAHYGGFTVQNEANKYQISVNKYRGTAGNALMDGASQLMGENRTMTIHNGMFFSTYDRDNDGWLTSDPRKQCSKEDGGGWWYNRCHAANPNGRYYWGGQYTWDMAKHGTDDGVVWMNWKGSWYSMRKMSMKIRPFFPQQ
T1 sequence (P02679 27-453): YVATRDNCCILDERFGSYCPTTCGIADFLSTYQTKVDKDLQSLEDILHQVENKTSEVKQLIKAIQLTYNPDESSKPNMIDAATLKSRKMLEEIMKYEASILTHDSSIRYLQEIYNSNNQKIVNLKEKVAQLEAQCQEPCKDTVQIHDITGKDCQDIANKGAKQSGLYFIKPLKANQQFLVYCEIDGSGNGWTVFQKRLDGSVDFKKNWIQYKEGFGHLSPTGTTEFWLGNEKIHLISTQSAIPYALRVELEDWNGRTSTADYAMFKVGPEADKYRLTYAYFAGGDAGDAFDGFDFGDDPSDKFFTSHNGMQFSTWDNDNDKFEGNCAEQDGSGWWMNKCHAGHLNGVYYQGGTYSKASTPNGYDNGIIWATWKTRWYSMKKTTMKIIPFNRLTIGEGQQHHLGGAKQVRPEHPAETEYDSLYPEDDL
Protocol: Thrombin-initiated fibrin polymerization and degradation assays were used to evaluate clotting rates and persistence in the presence of H6 and S11 (control) ULC microgels at different microgel and fibrinogen concentrations. Competing polymerization and degradation reactions were created with a 96 well plate, and a final volume of 100 μL per well. Two solutions were made, a fibrinogen-microgel solution that was loaded initially, and a thrombin-tPA (tissue Plasminogen Activator)-plasminogen solution that was added in a 1:1 volume ratio. Final concentrations in each well were 2 mg/mL microgel and 2 mg/mL of fibrinogen, 5 mMol Ca^+, 0.25 U/mL of human thrombin (Enzyme Research Laboratories, Inc., South Bend, Ind.), 0.29 μg/mL of tissue Plasminogen Activator(tPA), and 10.8 μg/mL of Plasminogen. The remainder of the volume in the thrombin/tPA/plasminogen solution was made up of 25 mM Hepes, 150 mM NaCl buffer. Turbidity curves were be generated from absorbance measurements (SpectraMax M2 Microplate Reader, Molecular Devices, Sunnyvale, Calif.) at 350 nm, with reads taken every thirty seconds.

femoral vein injury = assay: Rat femoral vessel traumatic injury model; format: in vivo
From the text: To test the efficacy of PLPs in hemostasis, a well-established rat femoral vessel traumatic injury model was used^13-15. This model results in an easily visualized, continuous stream of blood flowing from the injury site. All protocols were approved by the Georgia Institute of Technology IACUC. Adult Sprague-Dawley male rats (200-250 g) were anesthetized with 5% isoflurane. Following anesthesia, an incision was made on the right hindlimb to expose the femoral vessels. A portion of the femoral vein was isolated from the surrounding connective tissue by placing a small piece of foil between the vessel and the underlying tissue. Following isolation of the vessel, the cavity will be irrigated with 0.9% irrigation fluid at 37° C. Animals were then administered 500 μL of saline (vehicle), purified human factor VIIa ([…], 100 μg/kg the current standard of care, purchased from Innovative Research), PLPs (20 mg/mL) or S11-ULC microgels (20 mg/mL) via tail vein injection using a 24 gauge catheter. Six (6) animals were tested per condition. Following a 5 minute circulation time, injury was induced to the right femoral vein by piercing the vein with a 22 gauge needle. A gauze was lightly placed below the injury site to collect blood, allowing for better visualization of the injury site as well as measurement of total blood loss. Gauze were changed every ten seconds for the first 30 seconds following injury and then every 30 s until bleeding ceased. Bleeding time was defined as the time required for bleeding to cease for a minimum of 10 s. Following cessation of bleeding, animals were euthanized with carbon dioxide. Following cessation of bleeding, animals were euthanized and organs separated, fixed with 10% formalin, paraffin embedded and 5 μm sections were produced using a Microm […] Microtome (Thermo Scientific). Co-localization of PLPs were characterized through immunofluorescence staining for the MYC-tag encoded on the sdFvs and through Martius Scarlet Blue (MSB) staining for fibrin in adjacent serial sections. For MYC-tag staining, samples were counter stained with Hoescht (Invitrogen) to visualize nuclei. All statistical analyses for bleeding time studies were performed with Prism software program (GraphPad, San Diego Calif.). Bleeding and blood weight data were statistically analyzed using repeated measures analysis of variance using the Tukey test at a 95% confidence interval.

B1: PLPs: ultra-low crosslinked pNIPAm-AAc microgels conjugated to fibrin-specific sdFv H6 (conjugate)
VH: QVQLLESGGGLVQPGGSLRLSCAASGDRFTHNDMGWVRQAPGKGLEWVSTIPTTDGSTYYADSVKGRFTISRDNSKSTLYLQMNSLRAEDTAVYYCATGYMWKAPAYVKYWGQGTLVTVSSAAAEQKLISEEDLNSAAHYTDIG
clot degradation (fibrin clots): more resistant to degradation | total blood loss (femoral vein injury; compared to S11-ULC microgels, p<0.05): significantly less | fibrin staining in vessels (femoral vein injury; postmortem): higher levels of fibrin staining | localization at wound (MYC-tag staining, MSB fibrin staining) (femoral vein injury; postmortem wound tissue): co-localization of PLPs with fibrin clots | blood loss over time (bleeding dynamics) (femoral vein injury; rat): slowest blood loss over time | bleeding time compared to vehicle only (femoral vein injury; rat, tail vein injection): significantly decreased | Bleeding time (femoral vein injury; rat, tail vein injection, 5 minute circulation time): 117 ± 16 s
